The target in one assay is T1, Human IL12 (His Tag) (human, UniProt P29459 23-219; P29460 23-328).
T1 construct: Bought His-tagged heterodimer
T1 sequence (looked up) 1: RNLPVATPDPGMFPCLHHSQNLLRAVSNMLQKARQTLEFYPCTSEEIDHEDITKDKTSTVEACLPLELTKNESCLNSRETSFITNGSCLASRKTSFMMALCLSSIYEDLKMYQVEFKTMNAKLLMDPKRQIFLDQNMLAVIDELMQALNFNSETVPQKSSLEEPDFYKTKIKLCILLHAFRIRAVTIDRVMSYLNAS
T1 sequence (looked up) 2: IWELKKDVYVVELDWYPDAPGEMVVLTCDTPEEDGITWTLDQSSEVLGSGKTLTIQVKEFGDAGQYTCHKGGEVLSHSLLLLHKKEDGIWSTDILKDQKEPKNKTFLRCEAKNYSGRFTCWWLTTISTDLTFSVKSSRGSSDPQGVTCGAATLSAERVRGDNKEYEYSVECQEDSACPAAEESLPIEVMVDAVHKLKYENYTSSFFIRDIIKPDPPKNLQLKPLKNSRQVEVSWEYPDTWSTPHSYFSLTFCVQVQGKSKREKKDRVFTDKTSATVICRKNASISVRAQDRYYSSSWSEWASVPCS
As to the kind of experiment: FACS competition, IL12-His (40 nM mixed 1:1) on 293T-IL-12Rβ1&IL-23R cells. The protocol: 200 μL of 1% PBSA was added into each sample, and the mixture was centrifuged at 1200 rpm for 5 min to discard the supernatant. According to experiment design, correspondingly diluted antibody (highest final concentration of 60 μg/mL, 3-fold dilution, 8 concentrations in total) and IL12-His (Sino Biological, Cat. No.: CT-050-H08H-20) (40 nM) were mixed at a ratio of 1:1, and a blank control was set. The mixture of antibody and IL12 was incubated on ice for 30 min and then added to the cell precipitate at 100 μL/sample. The resulting mixture was well mixed and incubated on ice for 60 min 200 μL of 1% PBSA was added, and the mixture was centrifuged at 1200 rpm for 5 min to discard the supernatant, and then washed twice. THETM His tag antibody (FITC) (Genscript, Cat. No.: A01620) was diluted at a ratio of 1:500 and added to each tube at 100 μL. The mixture was well mixed and incubated on ice for 40 min in the absence of light. 200 μL of 1% PBSA was added, and the mixture was centrifuged at 1200 rpm for 5 min to discard the supernatant, and then washed twice. 1% PBSA was added at 200 μL/tube, and the cells were resuspended and transferred to a flow cytometry tube for testing.

Assay [1] concerns the target T2, human IL-23 (IL-23-His-Biotin) (human, UniProt Q9NPF7 20-189; P29460 23-328, biotin label, site not stated).
T2 construct: Akesobio lot 20161209; His-tagged and biotinylated
T2 sequence (looked up) 1: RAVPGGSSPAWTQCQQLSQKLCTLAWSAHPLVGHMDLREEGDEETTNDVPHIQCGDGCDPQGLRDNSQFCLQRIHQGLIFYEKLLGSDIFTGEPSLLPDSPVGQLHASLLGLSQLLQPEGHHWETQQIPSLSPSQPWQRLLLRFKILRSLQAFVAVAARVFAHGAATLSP
T2 sequence (looked up) 2: T1 sequence (looked up) 2
As to the kind of experiment: FACS competition, IL23-His-Biotin (4 µg/mL mixed 1:1) on 293T-IL-12Rβ1&IL-23R cells. The protocol:
200 μL of 1% PBSA was added into each sample, and the mixture was centrifuged at 1200 rpm for 5 min to discard the supernatant. According to experiment design, correspondingly diluted antibody (highest concentration of 60 μg/mL, 3-fold dilution, 8 concentrations in total) and human IL23-His-Biotin (Akeso Biopharma, Inc., Lot. No.: 20161209) (4 μg/mL) were mixed at a ratio of 1:1, and a blank control was set. The mixture of antibody and IL23-His-Biotin was incubated on ice for 30 min and then added to the cell precipitate at 100 μL/sample. The resulting mixture was well mixed and incubated on ice for 60 min. 200 μL of 1% PBSA was added, and the mixture was centrifuged at 1200 rpm for 5 min to discard the supernatant, and then washed twice. FITC Steptavidin (Biolegend, Cat. No.: 405202) was diluted at a ratio of 1:500 and added to each tube at 100 μL. The mixture was well mixed and incubated on ice for 40 min in the absence of light. 200 μL of 1% PBSA was added, and the mixture was centrifuged at 1200 rpm for 5 min to discard the supernatant, and then washed twice. 1% PBSA was added at 200 μL/tube, and the cells were resuspended and transferred to a flow cytometry tube for testing.

Assay [2] concerns the target T3, human p40-His (human, UniProt P29460 23-328).
T3 construct: Made by Akeso Biopharma; construct limits and tag not described; also called human IL-12/IL-23 p40 protein domain; human IL-12/IL-23 p40; not shown: His tag
T3 sequence (looked up): T1 sequence (looked up) 2
As to the kind of experiment: indirect ELISA, p40-His coat 0.125 µg/mL. The protocol: (§1) A microplate was coated with human p40-His (Akeso Biopharma, Inc.; gene of p40: GeneBank NM002187). After incubation at 4° C. for no less than 12 h, the plate was washed with PBST, patted dry and blocked with a solution of 1% BSA in PBS. After blocking was completed, the plate was washed with PBST and patted dry. The antibody diluted with PBST solution in gradient was added into the wells of the plate, and the antibody dilution gradient is detailed in Table 1. The plate containing the test antibody was incubated at 37° C. for 30 min and then washed with PBST and patted dry. […] TMB (Neogen, 308177) was added for color developing for 5 min in the absence of light, and then stop solution was added to terminate the chromogenic reaction. Then the plate was put into a plate reader immediately, and the OD value of each well in the plate was read at 450 nm. The data were analyzed by SoftMax Pro 6.2.1.
The binding EC₅₀ of antibody was calculated by curve fitting using antibody concentration as the abscissa and absorbance value as the ordinate, and the results are shown in Table 2 below.
In general terms: ELISA stands for enzyme-linked immunosorbent assay.

In assay [3] the target is T3, human p40-His. As to the kind of experiment: indirect ELISA, p40-His coat 0.125 µg/mL. The protocol: as §1
The binding EC₅₀ of antibody was calculated by curve fitting using antibody concentration as the abscissa and absorbance value as the ordinate, and the results are shown in Table 1 below.
The source holds these as a separate data set.

Where two headings read alike, the source gives them in different places.

Broadly, the EC50 is the concentration at which the effect is half-maximal. Read a high EC50 as a less potent agent.

B1: ustekinumab (antibody, V domains shown)
VH: EVQLVQSGAEVKKPGESLKISCKGSGYSFTTYWLGWVRQMPGKGLDWIGIMSPVDSDIRYSPSFQGQVTMSVDKSITTAYLQWNSLKASDTAMYYCARRRPGQGYFDFWGQGTLVTVSS
VL: DIQMTQSPSSLSASVGDRVTITCRASQGISSWLAWYQQKPEKAPKSLIYAASSLQSGVPSRFSGSGSGTDFTLTISSLQPEDFATYYCQQYNIYPYTFGQGTKLEIK
Consider B1, for which the EC50 with Human IL12 (His Tag) was determined as 1.58 µg/mL; in assay [1], 1.43 µg/mL.

B2: H5L10 (antibody, human IgG1, kappa, V domains shown)
VH: EVQLVQSGAEVKKPGESLKISCQSSGYSFTTYWIGWVRQMPGQGLEWIGIMSPVDSDIRYNPMFRGQVTMSVDKSSSTAYLQWSSLKASDTAMYYCARRRPGQGYFDFWGQGTMVTVSS
VL: EIVLTQSPATLSASPGERATISCRASQSVGSWLAWYQQKPGQAPRSLIYAASNLQSGIPARFSGSGSGTDFTLTISSLEPEDFAVYYCQQYNIYPYTFGQGTRLEIKR
notes: human IgG1 / kappa constant regions; also called humanized antibody H5L10
Consider B2, for which the midpoint of the response with human p40-His [2], the EC50, lay at 0.057 nM.

B3: H5L9 (antibody, human IgG1, kappa, V domains shown)
VH: B2 VH
VL: DIQMTQSPSSLSASVGDRVTITCKASQNVGSWLAWYQQKPGKAPKSLIYSASSRQSGVPSRFSGSGSGTDFTLTISSLQPEDFATYYCQQYDIYPFTFGQGTKLEIKR
notes: human IgG1 (P01857) / kappa (P01834) constant regions; also called humanized antibody H5L9
In turn, B3 came in with a concentration for a half-maximal effect (EC50) with human p40-His [3] of 0.079 nM.

(Values after patent US20220298235A1 (AKESO BIOPHARMA, published 2022).)
